# PMC8167299, “Cardio- and reno-protective effects of dipeptidyl peptidase III in diabetic mice” (The Journal of Biological Chemistry, 2021)
# Where no end group is shown, it is not given here.
# T1: C3a receptor (C3aR) (Homo sapiens, UniProt Q16581)
# T1 construct: host or cells: HUVECs
# T1 sequence (Q16581 1-482): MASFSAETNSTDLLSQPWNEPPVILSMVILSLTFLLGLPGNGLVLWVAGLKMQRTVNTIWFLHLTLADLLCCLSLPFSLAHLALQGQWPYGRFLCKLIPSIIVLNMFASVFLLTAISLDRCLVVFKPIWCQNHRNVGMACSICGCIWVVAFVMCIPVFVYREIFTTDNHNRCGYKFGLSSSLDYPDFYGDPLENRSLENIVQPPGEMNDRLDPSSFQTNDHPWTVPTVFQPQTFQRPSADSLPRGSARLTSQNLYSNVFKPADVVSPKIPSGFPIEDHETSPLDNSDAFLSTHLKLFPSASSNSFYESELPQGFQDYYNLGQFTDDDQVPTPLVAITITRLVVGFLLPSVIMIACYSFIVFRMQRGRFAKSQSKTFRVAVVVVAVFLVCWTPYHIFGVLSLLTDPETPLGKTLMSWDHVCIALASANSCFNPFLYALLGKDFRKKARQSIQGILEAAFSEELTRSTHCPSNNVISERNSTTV
# Experiments:
# [1] = system: U937 macrophage-like cells on a monolayer of HUVECs; assay: Transmigration assay of U937 cells across a HUVEC monolayer (Transwell); format: cell-based, human; conditions: presence of PKC inhibitor vs DMSO
# Protocol: The upper inserts (5.0 μm pore size) of Chemotaxicells (Kurabo Industries, Ltd) were coated with 100 μg fibronectin (Sigma-Aldrich). HUVECs were seeded on the insert and cultured for 48 h to form an endothelial monolayer. […] The number of U937 cells that migrated into the lower wells was counted using the Counting chamber (ERMA Inc).
# RhoA = assay: Pull-down assay for GTP-bound active RhoA in HUVECs; format: cell-based, human; conditions: presence of PKC inhibitor vs DMSO
# Protocol: These experiments were performed as described previously with some modifications ([70]). Briefly, total cell lysates were obtained using the RIPA lysis buffer (50 mmol/l Tris-HCl [pH 7.5], 150 mmol/l NaCl, 0.5% deoxycholate sodium, 0.1% SDS, 1% Nonidet P-40, and 100 mM PMSF). The samples were separated by SDS-PAGE and blotted on a polyvinylidene difluoride membrane. The membrane was sequentially incubated with primary Ab and horseradish peroxidase (HRP)-labeled secondary Ab, followed by treatment with HRP substrate (Luminata Forte, Millipore Corp). The target protein band was observed using the luminescent image analyzer LAS-4000 (Fujifilm Life Science). The pull-down assay was performed as described previously with some modifications ([71]). Briefly, the cell lysates were incubated with glutathione S-transferase-fused mDia Rho-binding domain and glutathione-sepharose beads (GE Healthcare) at 2 °C to collect active GTP-bound RhoA.
# SGLT2 = conditions: cited from earlier work
# Description: DM patients have a high mortality rate, mainly due to DM-related heart and/or kidney failure ([35], [43]). Pathologically, heart dysfunction exacerbates kidney damage, while renal injury negatively affects cardiac function. […] To reduce diabetic complications in tissues and organs, particularly in the heart and kidney, great effort has been made to develop effective medicines and therapeutics for DM. Among these, much attention ...
# C3a receptor (C3aR) = target: T1, C3a receptor (C3aR); assay: Cell surface attachment of FITC-Peptide 2 on HUVECs through C3aR; format: binding; conditions: C3aR-knockdown (siC3aR #2) vs scramble RNA-transfected HUVECs; 2 h at 4 °C
# Protocol: The expression level of C3a receptor 1 (C3aR) was evaluated by semiquantitative PCR. mRNA was extracted using TRIzol RNA isolation reagent (Thermo Fisher Scientific), and cDNA was synthesized using ReverTra Ace (Toyobo). PCR was performed using rTaq DNA polymerase (TaKaRa Bio Inc). The band densities of PCR products were quantified using the ImageJ software. The mRNA expression level of C3aR was adjusted to that of β-actin as an internal control. Primer sequences for the experiments were as follows: C3aR forward 5′-[…]-3′ and reverse 5′-[…]-3′; β-actin forward 5′-[…]-3′ and reverse 5′-[…]-3′. To silence C3aR expression in HUVECs, siRNA against C3aR (#1: 5′-[…]-3′, #2: 5′-[…]-3′) was transfected into the cells with RNAiMAX (Thermo Fisher Scientific), and the cells were cultured for 2 days.
# FITC-conjugated Peptide 2 was generated by Biologica Co. HUVECs, in which C3aR was or was not knocked down, were incubated with the indicated concentrations of FITC-Peptide 2 for 2 h at 4 °C. Subsequently, the cells were washed with PBS three times and labeled with tetramethylrhodamine-WGA (Thermo Fisher Scientific). Following fixation with 4% paraformaldehyde, the attached peptides on the cell surface were observed using a Leica SP8 microscope (Leica Microsystems).
# db/m mice = assay: Peptide 2 or control peptide administration for 8 weeks in nondiabetic db/m mice; format: in vivo, mouse; conditions: for Heart rate during echocardiography: db/m mice, isoflurane anesthesia, average ± SD, n= 7
# db/db mice [2] = conditions: mouse, in vivo, iv
# Protocol: We examined the in vivo cytotoxicity of Peptide 2 by intravenous injection of this peptide (0.5 μg/g body weight) into mice.
# Following euthanasia of the mice by cervical dislocation, they were perfused with PBS, and the heart and kidney were extracted. The extracted organs were snap-frozen in liquid nitrogen within a block of water-soluble medium (Surgipath FSC 22, Leica Biosystems) or fixed with 4% paraformaldehyde and subsequently embedded in paraffin blocks. Regarding the frozen samples, they were sectioned in 10 μm thick using a cryostat (Leica Biosystems), fixed with 4% paraformaldehyde on top of poly-L-lysine-coated slides, permeabilized with 0.1% Triton X-100, and blocked with 1% bovine serum albumin (BSA). Primary antibodies (Abs) (see below) were applied in the BSA blocking solution at 4 °C overnight, followed by 1 h incubation at room temperature with fluorescent dye-labeled secondary Abs. Paraffin sections, 4 μm thick, were stained with H-E, WGA (1:500 dilution) (Thermo Fisher Scientific) or Sirius red (1:1000 dilution) (Fujifilm Wako Pure Chemical Corporation) using standard techniques. Confocal images were taken using a Leica SP8 microscope (Leica Microsystems). […] As described previously ([68]), at least three random fields were selected from the four sections in each heart to quantify the extent of fibrotic or immunopositive area using ImageJ software.
# [3] = system: AngII-stimulated hypertensive mice; conditions: AngII-stimulated hypertensive vs normotensive mice; cited from earlier work
# db/db mice [4] = system: db/db mice
# [5] = nondiabetic db/m mice, 8-week administration
# [6] = DPPIII 10 μg/g iv, after 8 weeks
# [7] = DPPIII 10 μg/g iv, after 8 weeks, vs PBS
molecule,measurement,setting,value
"Cn1c2ccccc2c2c3c(c4c5ccccc5n(CCC#N)c4c21)CNC3=O [PKC inhibitor, Gö6976]",Effect on Peptide-2-induced U937 transendothelial migration,[1],inhibited in the presence of PKC inhibitor
same,Effect on Peptide-2-induced RhoA activation,RhoA,inhibited in the presence of PKC inhibitor
Cc1ccc([C@@H]2O[C@H](CO)[C@@H](O)[C@H](O)[C@H]2O)cc1Cc1ccc(-c2ccc(F)cc2)s1 [canagliflozin],Heart failure and DKD in DM patients,SGLT2,improves heart failure and DKD
"FITC-Peptide 2: fluorescein isothiocyanate (FITC)-conjugated Peptide 2 (RLLWENGNL; also: FITC-conjugated, position not given here)",FITC-Peptide 2 attachment on the cells (fluorescence microscopy),C3a receptor (C3aR),significantly reduced in C3aR-knockdown HUVECs
"IAFSQYLQK [control peptide, reference compound]",Heart rate during echocardiography,db/m mice; week 0,410 ± 30
same,Heart rate during echocardiography,db/m mice; week 4,423 ± 32
same,Heart rate during echocardiography,db/m mice; week 8,407 ± 30
RLLWENGNL [Peptide 2],Desmin deposition and microvasculature disruption in the glomeruli,db/db mice [2],highly enhanced
same,Heart rate during echocardiography,db/m mice; week 0,417 ± 32
same,Heart rate during echocardiography,db/m mice; week 4,402 ± 41
same,Heart rate during echocardiography,db/m mice; week 8,414 ± 42
same,"Body weight, blood glucose level, or hemodynamics",db/m mice; [5],did not affect
same,Deteriorative effects on the organs (heart and kidney),db/m mice; [5],not observed in db/m mice
"dipeptidyl peptidase III (protein, UniProt Q9NY33 2-737, looked up, aminopeptidase that cleaves specific dipeptides from the N terminus of relatively small peptides) Dipeptidyl peptidase 3: ADTQYILPNDIGVSSLDCREAFRLLSPTERLYAYHLSRAAWYGGLAVLLQTSPEAPYIYALLSRLFRAQDPDQLRQHALAEGLTEEEYQAFLVYAAGVYSNMGNYKSFGDTKFVPNLPKEKLERVILGSEAAQQHPEEVRGLWQTCGELMFSLEPRLRHLGLGKEGITTYFSGNCTMEDAKLAQDFLDSQNLSAYNTRLFKEVDGEGKPYYEVRLASVLGSEPSLDSEVTSKLKSYEFRGSPFQVTRGDYAPILQKVVEQLEKAKAYAANSHQGQMLAQYIESFTQGSIEAHKRGSRFWIQDKGPIVESYIGFIESYRDPFGSRGEFEGFVAVVNKAMSAKFERLVASAEQLLKELPWPPTFEKDKFLTPDFTSLDVLTFAGSGIPAGINIPNYDDLRQTEGFKNVSLGNVLAVAYATQREKLTFLEEDDKDLYILWKGPSFDVQVGLHELLGHGSGKLFVQDEKGAFNFDQETVINPETGEQIQSWYRSGETWDSKFSTIASSYEECRAESVGLYLCLHPQVLEIFGFEGADAEDVIYVNWLNMVRAGLLALEFYTPEAFNWRQAHMQARFVILRVLLEAGEGLVTITPTTGSDGRPDARVRLDRSKIRSVGKPALERFLRRLQVLKSTGDVAGGRALYEGYATVTDAPPECFLTLRDTVLLRKESRKLIVQPNTRLEGSDVQLLEYEASAAGLIRSFSERFPEDGPELEEILTQLATADARFWKGPSEAPSGQA",Blood-pressure-lowering effect,[3],"BP-lowering effects were observed specifically in AngII-stimulated hypertensive mice, but not in normotensive mice"
same,Body weight and blood glucose level (increase during the experimental period),"db/db mice [4]; DPPIII 10 μg/g body weight iv three times weekly for 8 weeks, vs PBS",unaffected by DPPIII treatment
same,Left ventricular dimensions and systolic functions (echocardiography),"db/db mice [4]; DPPIII 10 μg/g iv, 8 weeks",not significantly changed
same,Urine albumin excretion (albuminuria),"db/db mice [4]; DPPIII 10 μg/g iv, 8 weeks, 24 h urine, SDS-PAGE, Coomassie staining",the increase was blocked by DPPIII treatment
same,Cardiac diastolic functions (pulse-wave and tissue Doppler echocardiography),"db/db mice [4]; DPPIII 10 μg/g iv, 8 weeks, vs PBS",improved the impaired diastolic functions
same,Desmin deposition in the glomeruli,db/db mice [4]; [6],almost totally reversed by DPPIII treatment
same,Disruption of glomerular microvasculature (CD31 staining),db/db mice [4]; [6],recovered
same,Morphology and size of cardiomyocytes (H-E and WGA staining),db/db mice [4]; [6],unchanged by DPPIII treatment
same,Plasma cholesterol or triglyceride levels,db/db mice [4]; [6],no effects
same,Podocyte foot process damage (electron microscopy),db/db mice [4]; [6],ameliorated by DPPIII treatment
same,Cardiac fibrosis (Sirius red staining),db/db mice [4]; [7],reduced by DPPIII treatment
same,Infiltration of CD68-positive inflammatory cells in the heart,db/db mice [4]; [7],reversed
same,Plasma concentration of Peptide 2 (SRM),"db/db mice [4]; after 8-week DPPIII administration, vs PBS-infused db/db mice",clearly reduced
